In US20250346682A1 (TENEOBIO, published 2025):

T1: human CD20 (B-lymphocyte antigen CD20) (human, UniProt P11836 1-297)
T1 construct: whole, on cells; also called MS4A1
T1 sequence (looked up): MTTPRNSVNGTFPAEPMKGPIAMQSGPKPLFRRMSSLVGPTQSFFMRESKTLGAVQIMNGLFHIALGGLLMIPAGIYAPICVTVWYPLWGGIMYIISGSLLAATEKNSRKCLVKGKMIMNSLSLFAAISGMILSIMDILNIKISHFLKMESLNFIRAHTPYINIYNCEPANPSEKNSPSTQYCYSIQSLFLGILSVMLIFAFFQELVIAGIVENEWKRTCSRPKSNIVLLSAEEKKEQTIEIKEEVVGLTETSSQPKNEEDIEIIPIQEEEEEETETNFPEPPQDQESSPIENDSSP

B1: anti-CD20 heavy chain-only antibody (UniAb) Clone ID 367912 (antibody, V domains shown)
VH: EVQLVESGGGVVRPGGSLRLSCAASGFTFDDYGMSWVRQAPGKGLEWVSSINWNGGSKGYADSVKGRFTISRDNAKNSLYLQMNSLRVEDTALYQCARERGYRIGHDSFDIWGQGTLVTVSS
notes: Heavy chain-only antibody (UniAb) from UniRat, called human IgG, with no light chain; also called VH912
B2: anti-CD20 heavy chain-only antibody (UniAb) Clone ID 367936 (antibody, V domains shown)
VH: QVQLQESGPGLVKPSETLSLTCTVSGGSVSSGNYYWNWIRQPPGKGLEWIGYIYSSGSTKYNPSLKSRVTILVDTSKNQFSLKLSSVTAADTAVYYCARSRLNGDGLFDDRGQGTLVTVSS
notes: Heavy chain-only antibody (UniAb) from UniRat, called human IgG, with no light chain; also called VH936

Molecular target: T1, human CD20 (B-lymphocyte antigen CD20)
Test: ELISA on CD20 protein and cell-binding assays

| Binder | binding result |
| --- | --- |
| B1 | binds |
| B2 | binds |
